Results taken from patent US20190248902A1 (published 2019).

T1: human ASGR-1 (wild type) (human, UniProt P07306 1-291)
T1 construct: also called wt ASGR1; huASGR-1
T1 sequence: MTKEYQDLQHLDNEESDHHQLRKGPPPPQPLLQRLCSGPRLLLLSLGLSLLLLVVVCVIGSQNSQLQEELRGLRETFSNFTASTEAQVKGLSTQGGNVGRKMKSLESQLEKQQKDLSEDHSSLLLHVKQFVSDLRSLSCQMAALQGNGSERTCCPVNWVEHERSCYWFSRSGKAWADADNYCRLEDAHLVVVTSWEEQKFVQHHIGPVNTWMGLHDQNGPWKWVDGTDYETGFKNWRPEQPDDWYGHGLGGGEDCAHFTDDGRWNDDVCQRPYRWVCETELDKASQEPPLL

T2: human ASGR-1 mutant construct H203 (human, UniProt P07306 1-291)
T2 construct: Arg/Glu scanning: non-arginine residues were changed to arginine; Transiently expressed on CHO-S cells
T2 sequence: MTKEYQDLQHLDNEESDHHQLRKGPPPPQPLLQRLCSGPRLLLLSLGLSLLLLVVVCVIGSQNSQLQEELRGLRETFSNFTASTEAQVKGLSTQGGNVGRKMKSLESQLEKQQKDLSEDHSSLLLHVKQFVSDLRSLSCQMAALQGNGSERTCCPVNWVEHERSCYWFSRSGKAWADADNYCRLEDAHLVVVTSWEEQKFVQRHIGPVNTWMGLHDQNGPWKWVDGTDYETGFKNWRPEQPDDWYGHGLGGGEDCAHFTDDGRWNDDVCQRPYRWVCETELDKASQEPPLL

T3: human ASGR-1 (human, UniProt P07306 1-291)
T3 construct: Stably expressed on CHO-S cells (CHO-S:huASGR-1); The method text says human or mouse ASGR-1 cells were used; also called huASGR-1; hASGR-1
T3 sequence: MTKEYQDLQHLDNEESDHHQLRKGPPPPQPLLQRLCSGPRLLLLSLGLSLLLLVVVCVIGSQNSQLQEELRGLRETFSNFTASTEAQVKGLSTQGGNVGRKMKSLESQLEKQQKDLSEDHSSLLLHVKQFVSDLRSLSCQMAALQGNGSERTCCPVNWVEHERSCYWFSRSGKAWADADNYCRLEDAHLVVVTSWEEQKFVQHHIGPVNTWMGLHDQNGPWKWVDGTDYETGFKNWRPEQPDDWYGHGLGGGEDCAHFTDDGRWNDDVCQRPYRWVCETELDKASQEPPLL


What was measured:
[1] = biological target: T1, human ASGR-1 (wild type); test: FACS, transfected CHO-S cells, mAb 5 ug/ml
Method: (§1) The ability of human ASGR-1-specific, ligand competing antibodies to bind to the mutant hASGR-1 proteins was assessed by FACS as described above.
(§2) Antibodies were tested for binding to the individual mutant and wild type ASGR-1 constructs using normalized antibody concentrations (5 ug/ml). CHO—S cells transiently expressing the appropriate mutated or non-mutated antigen of interest were mixed with antibody sample or controls, incubated for 1 hour at 4° C., and then washed twice. Cells with bound antibody were then incubated with Alexa Fluor® 647 IgG Fc fragment-specific detection antibody and 7-AAD viability stain for 15 minutes at 4° C., washed once and resuspended in FACS buffer. Samples were analyzed using a BD Accuri™ Flow Cytometer and an Intellicyt HyperCyt Autosampler. As a negative control, supernatants and controls were also screened against CHO—S cells transfected with empty parental vector (referred to as mock). […] Because mutant hASGR-1 expression levels varied relative to each other, sample binding data for each construct was normalized for expression by dividing the binding data from an antibody not affected by the mutations (e.g., 65C12) by the binding values of each test antibody on a given mutant construct. Also, because the antibody binding affinities varied amongst the samples, the expression corrected data (above) was further normalized by comparing test antibody binding on each mutant construct to wild type hASGR-1. Identification of specific mutations that affected test antibody binding was performed by an interquartile range (IQR) analysis to determine statistical outliers. A mutation was identified as a “hit” if the calculated values were >3× the IQR (above the 3rd quartile/upper fence) for a given mutant construct. Although IQR analysis was used here to determine signifance and identify hits, one skilled in the art will recognize that a number of methods could be employed in order to normalize the data (eg. using epitope-tagged constructs or other ASGR-1-binding antibodies directed against non-CBD epitopes).

[2] = biological target: T2, human ASGR-1 mutant construct H203; test: FACS, transfected CHO-S cells, mAb 5 ug/ml
Method: as §1, §2

[3] = biological target: T2, human ASGR-1 mutant construct H203; test: FACS ratio: H203 normalized value / wt normalized value
Method: as §1, §2

[4] = biological target: T1, human ASGR-1 (wild type); test: FACS ratio: 65C12 geomean / this mAb geomean
Method: (§3) Mutant hASGR-1 variants were constructed such that non-arginine residues were changed to arginine and where wild type arginine residues were mutated to glutamic acid. Each mutant hASGR-1 sequence was then cloned into a mammalian expression vector and used to transiently transfect CHOs cells. The ability of human ASGR-1-specific, ligand competing antibodies to bind to the mutant hASGR-1 proteins was assessed by FACS as described above.
(§4) Antibodies were tested for binding to the individual mutant and wild type ASGR-1 constructs using normalized antibody concentrations (5 ug/ml). CHO—S cells transiently expressing the appropriate mutated or non-mutated antigen of interest were mixed with antibody sample or controls, incubated for 1 hour at 4° C., and then washed twice. Cells with bound antibody were then incubated with Alexa Fluor® 647 IgG Fc fragment-specific detection antibody and 7-AAD viability stain for 15 minutes at 4° C., washed once and resuspended in FACS buffer. Samples were analyzed using a BD Accuri™ Flow Cytometer and an Intellicyt HyperCyt Autosampler. As a negative control, supernatants and controls were also screened against CHO—S cells transfected with empty parental vector (referred to as mock). […] Because mutant hASGR-1 expression levels varied relative to each other, sample binding data for each construct was normalized for expression by dividing the binding data from an antibody not affected by the mutations (e.g., 65C12) by the binding values of each test antibody on a given mutant construct. Also, because the antibody binding affinities varied amongst the samples, the expression corrected data (above) was further normalized by comparing test antibody binding on each mutant construct to wild type hASGR-1. Identification of specific mutations that affected test antibody binding was performed by an interquartile range (IQR) analysis to determine statistical outliers. A mutation was identified as a “hit” if the calculated values were >3× the IQR (above the 3rd quartile/upper fence) for a given mutant construct.

[5] = biological target: T2, human ASGR-1 mutant construct H203; test: FACS ratio: 65C12 geomean / this mAb geomean
Method: as §3, §4

[6] = biological target: T3, human ASGR-1; test: FACS ligand blocking on CHO-S ASGR-1 cells; labelled ligand biotin-GalNAc-PAA (synthetic sugar)
Method: (§5) All ASGR-1 antibodies that bound either human or mouse ASGR-1 stable CHO—S cells were then tested for ligand blocking using both a protein ligand and a synthetic sugar ligand. The method in brief is as follows: first, 20 ul of either CHO-Shuman or mouse ASGR-1 cells were added to wells of a 384 well plate (30 k cells/well) followed by spin and discarding the supernatant. Second, 10 ul of the antibodies (either purified from hybridoma supernatants or made recombinantly) were added in duplicate to the cells in a dilution series (200 nM top concentration, 1:2 serial dilution, 11 point curve) and were incubated for 30 min at 4 C. […] After 30 min incubation at 4C, the plate was spun and washed twice with FACS buffer+1 mM CaCl2 followed by the detection streptavidin-AF647 at 1:1000 dilution. After 30 min at 4C, the cells were spun and washed once and then 60 ul PI added at 1:1000 dilution and the plates delivered to a core flow cytometry facility. The plates were read and processed similarly to the cell binding method except the signal now represents an inhibition curve and typically decreases a function of increasing antibody concentration. IC50 nM potency and % Inhibition were reported. […] Differences in the ability of antibodies to block these two ligands could occur as a result of differences in, for example, avidity stemming from differences in the number and/or orientation of the ASGR binding terminal sugar residues of each ligand, steric hindrance between antibody and each ligand, and/or changes in the conformation of ASGR induced by antibody binding that selectively alters the binding of each ligand.

[7] = biological target: T3, human ASGR-1; test: FACS ligand blocking on CHO-S ASGR-1 cells; competitor biotinylated asialofetuin
Method: as §5

Row | Binder | FACS Binding Geomean [1] | FACS Binding Geomean [2] | Normalization to wt ASGR1 Binding [3] | Expression Normalization to mAb 65C12 [4] | Expression Normalization to mAb 65C12 [5] | % Inhibition [6] | IC50 [6] | % Inhibition [7] | IC50 [7]
1 | 10G6 (antibody, V domains shown, mAb) VH: QVQLVQSGAEVKKPGASVKVSCKASGYTFTAYHMHWVRQAPGQGLEWMGWINPNNNGTNYAQKFQGRVTMTRDTSISTAYMELSRLRSDDTAVYYCGRDVTSSFDYWGQGTLVTVSS VL: DIQMTQSPSSVSASVGDRVTITCRASQGISKWLAWYQQKPGKAPKILIYAAYSLQSGVPARFSGSGSGTDFTLTIRSLQPEDFATYYCQQANSFPFTFGPGTKVDIK | 43100 | 18200 | 1.09 | 1.3 | 1.41 |  |  |  | 
2 | 53F7 (antibody, V domains shown, mAb) VH: QVQLVQSGAEVKKPGASVKVSCKASGYTFTGYHMHWVRQAPGQGLEWMGWINPNNNGTNYAQKFQGRVTMTRDTSISTAYMELNRLTSDDTAVYYCARDGTSSFDYWGQGTLVTVSS VL: DIQMSQSPSSVSASVGDRVTITCRASQGISRWLAWYQQKPGKAPNLLIYAASSLQSGVPSRFSGSGSGTDFTLTISSLQPEDFAIYYCQQANSFPFTFGPGTKVDIK | 43500 | 18100 | 1.1 | 1.29 | 1.42 |  |  |  | 
3 | 29E2 (antibody, V domains shown, mAb) VH: QVQLVESGGGVVQPGRSLRLSCAASGFTFSNCVMHWVRQAPGKGLEWVAVIWYDGSNKYYADSVKGRITISRDNSKNTLYLQMNSLRAEDTAVYYCAREEYSSGWYDYGMDVWGQGTTVTVSS VL: DIQMTQSPSSLSASVGDRVTITCRASQAIRNDLGWYQQRPGKAPKRLIYAASSLQSGVPSRFSGSGSGTEFILTISSLQPEDFATYYCLQHYNYPRSFGQGTKLEIK | 25800 | 15100 | 0.786 | 2.18 | 1.71 |  |  |  | 
4 | 45B4 (antibody, V domains shown, mAb) VH: QVQLVESGGGVVQPGRSLRLSCAASGFTFSDCVMHWVRQAPGKGLEWVAVIWYDGSNKYYADSVKGRFTISRDNSKNTLYLQMNSLRAEDTAVYYCARERYSSGLYDYGMDVWGQGTTVTVSS VL: DIQMTQSPSSLSASVGDRVTFTCRASQGIRDDLGWYQQKPGKAPKRLIYAASSLQSGVPSRFSGSGSGTEFTLTISSLQPEDFATYYCLQHYSYPRTFGQGTKVEIK | 30400 | 14000 | 0.995 | 1.85 | 1.84 |  |  |  | 
5 | 6G6 (antibody, V domains shown, mAb) VH: QVQLVQSGAEVRKPGASVKVSCKASGYTFTNYDINWVRQATGQGPEWMGWMHPNSGNTGYAKKFQGRVTMTRNTSISAAYMVLSSLRSEDTAVYYCALSSGWYYFDYWGQGTLVTVSS VL: not shown | 47600 | 20500 | 1.07 | 1.18 | 1.26 |  |  |  | 
6 | 32D6 (antibody, V domains shown, mAb) VH: QVQLVESGGGVVQPGRSLRLSCAASGFTFSSYGMHWVRQAPGKGLEWVTVIWHDGSNAYYADSVKGRFTISRDNSKNTLYLQMNSLRAEDTAVYYCARENSSSYYFDYWGQGTLVTVSS VL: DIQMTQSPSSLSTSVGDRVTITCRASQNIISYLNWYQQKPGKAPKLLMYVASRLQSGVPSRFSGSGSGTDFTLTISSLQAEDFATYYCQQSYSTPYTFGGGTKVAIK | 36100 | 13500 | 1.23 | 1.55 | 1.91 |  |  |  | 
7 | 4B3 (antibody, V domains shown, mAb) VH: not shown VL: SYELTQPPSVSVSPRQTVSITCSGDKLGDKYACWYQQKPGQSPVLVIYQDRKRPSGIPERFSGSNSGNTATLTISGTQAMDEADYYCQAWDNNTVIFGGGTKLTVL | 35600 | 1700 | 9.63 | 1.58 | 15.2 |  |  |  | 
8 | 4B1 (antibody, V domains shown) VH: QVQLQESGPGLVKPSETLSLTCSVSGDSISSYSWSWIRQPAGKGLEWIGRIYTSGSTNYIPSLKSRITMSVDTSKKQFSLKLSSVTAADTAVYYCARDLKSSGCLFFDYWGQGTLVTVSS VL: DIQMTQSPSSLSASVGDRVTITCRASHTIRTYLNWYQQKPGKAPKLLIYAASSLQSGVPSRINGSGSGTDFTLTITNLQPEDFATYYCQQSYNISFTFGPGTKVDIK |  |  |  |  |  | 36% | 42 nM | 75% | 64 nM
9 | 4A2 (antibody, V domains shown) VH: QVQLVQSGTEVKKPGASVKVSCKASGYTFTNYDINWVRQATGQGLEWMGWMHPNSGNTGYAQKFQGRVTLTRNTSISTAYMELSSLRSEDTAVYYCASSSGWYYFDYWGQGTLVTVSS VL: DIVMTQSPDSLAVSLGERATINCKSSQSILHSSNNNNYLAWFQQKPGQPPKLLLYWASTRESGVPDRFSGSGSGTDFTLTISSLQPEDVAVYYCQQYYNTPVTFGPGTKVGIK |  |  |  |  |  | 70% | 54 nM | 99% | 11 nM
